From PMC7855945 (Cellular microbiology, 2020)

Molecular target: the molecule itself
Assay: SEC

B1: recombinant A. fumigatus Hsp90 (rAfHsp90), full length, 6×His-tagged (natural protein)
chain: not shown
Question: For B1, which “stoichiometry N” value is on record?
Answer: 2
